Sequences and labels used below:
T1: FcγRIIa R (human, UniProt P12318 34-217)
T1 construct: extracellular domain; also called FcgRIIa R type; 2aR
T1 sequence (looked up): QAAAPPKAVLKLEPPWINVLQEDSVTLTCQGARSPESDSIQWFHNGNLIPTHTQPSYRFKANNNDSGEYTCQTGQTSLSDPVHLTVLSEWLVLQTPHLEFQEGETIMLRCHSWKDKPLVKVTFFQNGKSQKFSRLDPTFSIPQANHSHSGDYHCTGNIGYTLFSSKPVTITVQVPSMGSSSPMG

B1: GpH7-A5/GpH7-B3 variant G237_08L/GpL16-k0 (antibody, human IgG1, kappa)
heavy 1: not shown
heavy 2: not shown
light: DIVMTQSPLSLPVTPGEPASISCQASESLVHSNRNTYLHWYLQKPGQSPQLLIYKVSNRFSGVPDRFSGSGSGTDFTLKISRVEAEDVGVYYCSQNTHVPPTFGQGTKVEIERTVAAPSVFIFPPSDEQLKSGTASVVCLLNNFYPREAKVQWKVDNALQSGNSQESVTEQDSKDSTYSLSSTLTLSKADYEKHKVYACEVTHQGLSSPVTKSFNRGEC
notes: also called He Ab G237_08L
B2: GpH7-A5/GpH7-B3 variant G237_15Y/GpL16-k0 (antibody, human IgG1, kappa)
heavy 1: not shown
heavy 2: not shown
light: B1 light
notes: also called He Ab G237_15Y
B3: GpH7-A5/GpH7-B3 variant H268_01G/GpL16-k0 (antibody, human IgG1, kappa)
heavy 1: not shown
heavy 2: not shown
light: B1 light
notes: also called He Ab H268_01G
B4: GpH7-A5/GpH7-B3 variant L235_09D/GpL16-k0 (antibody, human IgG1, kappa)
heavy 1: not shown
heavy 2: not shown
light: B1 light
notes: also called He Ab L235_09D
B5: GpH7-A5/GpH7-B3 variant K334_20W/GpL16-k0 (antibody, human IgG1, kappa)
heavy 1: not shown
heavy 2: not shown
light: B1 light
notes: also called He Ab K334_20W
B6: GpH7-A5/GpH7-B3 variant L235_04F/GpL16-k0 (antibody, human IgG1, kappa)
heavy 1: not shown
heavy 2: not shown
light: B1 light
notes: also called He Ab L235_04F
B7: GpH7-A5/GpH7-B3 variant K334_02A/GpL16-k0 (antibody, human IgG1, kappa)
heavy 1: not shown
heavy 2: not shown
light: B1 light
notes: also called He Ab K334_02A
B8: GpH7-A5/GpH7-B3 variant K326_04F/GpL16-k0 (antibody, human IgG1, kappa)
heavy 1: not shown
heavy 2: not shown
light: B1 light
notes: also called He Ab K326_04F
B9: GpH7-A5/GpH7-B3 variant N325_08L/GpL16-k0 (antibody, human IgG1, kappa)
heavy 1: not shown
heavy 2: not shown
light: B1 light
notes: also called He Ab N325_08L
B10: GpH7-A5/GpH7-B3 variant K326_12R/GpL16-k0 (antibody, human IgG1, kappa)
heavy 1: not shown
heavy 2: not shown
light: B1 light
notes: also called He Ab K326_12R
B11: GpH7-A5/GpH7-B3 variant I332_14T/GpL16-k0 (antibody, human IgG1, kappa)
heavy 1: not shown
heavy 2: not shown
light: B1 light
notes: also called He Ab I332_14T
B12: GpH7-A5/GpH7-B3 variant G237_18N/GpL16-k0 (antibody, human IgG1, kappa)
heavy 1: not shown
heavy 2: not shown
light: B1 light
notes: also called He Ab G237_18N
B13: GpH7-A5/GpH7-B3 variant K334_13S/GpL16-k0 (antibody, human IgG1, kappa)
heavy 1: not shown
heavy 2: not shown
light: B1 light
notes: also called He Ab K334_13S
B14: GpH7-A5/GpH7-B3 variant N325_01G/GpL16-k0 (antibody, human IgG1, kappa)
heavy 1: not shown
heavy 2: not shown
light: B1 light
notes: also called He Ab N325_01G
B15: GpH7-A5/GpH7-B3 variant K326_03V/GpL16-k0 (antibody, human IgG1, kappa)
heavy 1: not shown
heavy 2: not shown
light: B1 light
notes: also called He Ab K326_03V
B16: GpH7-A5/GpH7-B3 variant G237_19Q/GpL16-k0 (antibody, human IgG1, kappa)
heavy 1: not shown
heavy 2: not shown
light: B1 light
notes: also called He Ab G237_19Q
B17: GpH7-A5/GpH7-B3 variant L235_15Y/GpL16-k0 (antibody, human IgG1, kappa)
heavy 1: not shown
heavy 2: not shown
light: B1 light
notes: also called He Ab L235_15Y
B18: GpH7-A5/GpH7-B3 variant N325_03V/GpL16-k0 (antibody, human IgG1, kappa)
heavy 1: not shown
heavy 2: not shown
light: B1 light
notes: also called He Ab N325_03V
B19: GpH7-A5/GpH7-B3 variant H268_15Y/GpL16-k0 (antibody, human IgG1, kappa)
heavy 1: not shown
heavy 2: not shown
light: B1 light
notes: also called He Ab H268_15Y
B20: GpH7-A5/GpH7-B3 variant H268_05P/GpL16-k0 (antibody, human IgG1, kappa)
heavy 1: not shown
heavy 2: not shown
light: B1 light
notes: also called He Ab H268_05P
B21: GpH7-A5/GpH7-B3 variant K334_04F/GpL16-k0 (antibody, human IgG1, kappa)
heavy 1: not shown
heavy 2: not shown
light: B1 light
notes: also called He Ab K334_04F
B22: GpH7-A5/GpH7-B3 variant L234_20W/GpL16-k0 (antibody, human IgG1, kappa)
heavy 1: not shown
heavy 2: not shown
light: B1 light
notes: also called He Ab L234_20W
B23: GpH7-A5/GpH7-B3 variant G237_10E/GpL16-k0 (antibody, human IgG1, kappa)
heavy 1: not shown
heavy 2: not shown
light: B1 light
notes: also called He Ab G237_10E
B24: GpH7-A5/GpH7-B3 variant L234_09D/GpL16-k0 (antibody, human IgG1, kappa)
heavy 1: not shown
heavy 2: not shown
light: B1 light
notes: also called He Ab L234_09D
B25: GpH7-A5/GpH7-B3 variant K334_08L/GpL16-k0 (antibody, human IgG1, kappa)
heavy 1: not shown
heavy 2: not shown
light: B1 light
notes: also called He Ab K334_08L
B26: GpH7-A5/GpH7-B3 variant I336_06M/GpL16-k0 (antibody, human IgG1, kappa)
heavy 1: not shown
heavy 2: not shown
light: B1 light
notes: also called He Ab I336_06M
B27: GpH7-A5/GpH7-B3 variant K334_12R/GpL16-k0 (antibody, human IgG1, kappa)
heavy 1: not shown
heavy 2: not shown
light: B1 light
notes: also called He Ab K334_12R

For this test, the target named is T1, FcγRIIa R. The test is described as follows: SPR Biacore; vs GpH7-A5/GpH7-B3/GpL16-k0 =100.
With B1, the He/Con_2aR is 133 % of control.
The figure for B2 is 129 % of control.
Next, B3: 124 % of control; B4: 101 % of control; B5: 105 % of control.
Take B6: the He/Con_2aR is 114 % of control.
The figure for B7 is 105 % of control.
Take B8: the He/Con_2aR was 135 % of control.
The figure for B9 is 144 % of control; for B10 it is 103 % of control.
As for B11, the He/Con_2aR was 105 % of control.
The figure for B12 is 150 % of control; for B13 it is 109 % of control.
For the molecule B14, the He/Con_2aR was 107 % of control.
Next, B15: 141 % of control; B16: 121 % of control.
Consider B17, for which the He/Con_2aR was 129 % of control.
The figure for B18 is 108 % of control.
As for B19, the He/Con_2aR was 110 % of control.
The figure for B20 is 106 % of control; for B21 it is 110 % of control; for B22 it is 108 % of control.
For the molecule B23, the He/Con_2aR is 116 % of control.
Take B24: the He/Con_2aR was 122 % of control.
B25: the He/Con_2aR was 106 % of control.
As for B26, the He/Con_2aR is 106 % of control.
Next, B27: 111 % of control.

For the origin of these results see patent US20180155451A1 (published 2018).
